Measured values: patent US20160271230A1 (UNIVERSITY HEALTH NETWORK, published 2016)
No end group written: not given here.

Columns and labels:
[1] = molecular target: T1, His-tagged 6FNIII-domain of Neogenin (Gallus gallus, UniProt Q90610 429-1036); experiment: complementary plate assay, RGMa peptides fused with AP (FIG. 9)
T1 construct: also called His-6FNIII; His-FNIII; not shown: His tag
T1 sequence: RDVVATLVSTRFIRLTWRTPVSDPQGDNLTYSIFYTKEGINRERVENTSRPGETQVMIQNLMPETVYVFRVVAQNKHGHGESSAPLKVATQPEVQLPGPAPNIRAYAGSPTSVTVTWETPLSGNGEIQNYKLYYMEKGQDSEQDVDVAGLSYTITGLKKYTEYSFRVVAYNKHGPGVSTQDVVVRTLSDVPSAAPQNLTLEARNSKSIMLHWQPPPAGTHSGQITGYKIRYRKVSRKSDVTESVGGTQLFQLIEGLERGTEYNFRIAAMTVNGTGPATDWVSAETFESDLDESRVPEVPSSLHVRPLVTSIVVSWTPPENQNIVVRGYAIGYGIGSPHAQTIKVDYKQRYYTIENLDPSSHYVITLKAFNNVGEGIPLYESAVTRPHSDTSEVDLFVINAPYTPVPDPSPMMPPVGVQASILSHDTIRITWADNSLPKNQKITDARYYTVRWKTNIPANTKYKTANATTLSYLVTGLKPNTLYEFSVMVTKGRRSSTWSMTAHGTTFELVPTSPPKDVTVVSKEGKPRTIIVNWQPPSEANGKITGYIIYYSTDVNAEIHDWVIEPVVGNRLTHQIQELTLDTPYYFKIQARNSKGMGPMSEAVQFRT
Description: (§1) (A) Different RGMa-AP proteins were incubated on wells coated with the 4Ig 6FNIII or BSA. […] Data were average±SEM (n=3 independent experiments), *p<0.005. (B) Quantification of a binding assay where 4Ig-AP and 6FNIII-AP proteins were assayed on wells coated with proteins from different RGMa regions. […] C-RGMa proteins and full length RGMa only bound 6FNIII. Data were average±SEM (n=3 independent experiments), *p<0.005. […] Quantification of a binding assay where N-RGMa-AP was assayed on wells coated with proteins DCC-4Ig and Neogenin-4Ig. In this experiment Neogenin-4Ig but not DCC-4Ig interacted with N-Raft-AP. Data were average±SEM (n=4 independent experiments), *p<0.005. (D) Cis-interaction between the 4Ig domain of Neogenin and N-Raft is required for localization of Neogenin in lipid rafts. HEK-293 cells were transfected with Neogenin and RGMa constructs. BMP2 (100 nM) was added to the medium 1 hour before cells were collected. Western blotting was performed following lipid raft fractionation. Flotillin was used as a marker for lipid raft fractions, whereas the transferrin receptor (TfR) was used as a marker for heavy membrane-fractions. Every experiment was repeated twice. […] In the first set of experiments, cells were only transfected with Neogenin. […]

[2] = molecular target: T2, His-tagged 4Ig-domain of Neogenin (Gallus gallus, UniProt Q90610 1-383); experiment: complementary plate assay, RGMa peptides fused with AP on coated Neogenin domains (FIG. 9)
T2 construct: Secreted from transfected cells, purified on Ni-NTA; also called His-4Ig; Neogenin-4Ig; not shown: 6-His tag at the N-terminus; myc and 6-His tags of the pSectag 2B vector at the C-terminus
T2 sequence: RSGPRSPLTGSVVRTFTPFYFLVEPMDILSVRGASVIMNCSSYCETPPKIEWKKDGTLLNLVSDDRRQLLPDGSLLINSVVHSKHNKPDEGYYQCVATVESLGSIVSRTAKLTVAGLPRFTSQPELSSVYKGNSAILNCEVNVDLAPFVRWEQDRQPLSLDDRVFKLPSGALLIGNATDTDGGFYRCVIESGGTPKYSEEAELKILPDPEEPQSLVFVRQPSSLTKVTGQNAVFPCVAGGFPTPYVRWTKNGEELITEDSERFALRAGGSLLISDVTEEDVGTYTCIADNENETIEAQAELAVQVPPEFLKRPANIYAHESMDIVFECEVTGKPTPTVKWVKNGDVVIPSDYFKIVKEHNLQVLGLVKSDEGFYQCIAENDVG
Description: as §1

- binding result [1]: binds
- binding result [2]: no binding
B1: N-inh fused with alkaline phosphatase (peptide)
chain: GDLAYHSAVHGIDDLMVQHNCSKDGPTSQPRLRTLPP
modifications: also: alkaline phosphatase tag, sequence and position not given here
notes: also called N-inh-AP; not shown: alkaline phosphatase (AP)
